Assay: yeast display, Sf9 membrane polyspecificity reagent, FACS + sequencing; frameworks hold sequencing errors
How it was run: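 Galactose induction of a Saccharomyces cerevisiae BJ5465 synthetic nanobody display library ran 36–48 hours. The cells were then stained for 1 hour at 4 °C with 10% biotinylated, detergent-solubilized Sf9 membrane reagent, pulled down on streptavidin microbeads and FACS-sorted into low and high (top ~1%) gates on expression and reagent-binding fluorescence. Labels for polyreactivity follow the gate of origin.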

| Sequence | polyreactivity (PSR sort gate) |
| --- | --- |
| QVQLVESGGGLVQAGGSLRLSCAASGSIFSSYAMGWYRQAPGKERELVAAIDGSGGSTYADSVKGRFTISRDNAKITVYLQMNRLKPEDTAVYYCAVDSFLVYSAVRPYDYWGLGTQVTVSS | low polyreactivity |
| QVHLVESGGGLVQAGGSLRLTCAASGSIFLYYAMGWYRQAPGKERELVAGIRRGGRTNYADSVKGRFTISRDNAKNTVYLQMNSLKPEDTAVYYCAKGGYWGQGTLVTVSS | high polyreactivity |
| QVQLVESGGGLVQAGGSLRLSCAASGFTFSAYAMGWYRQAPGKERELVAAITRSGGSTYYADSVKGRFTISRDNAKNTVYLQMNSLKPEDTAVYYCAKSDRPWWGYYYQFDYWGQGTQVTVSS | low polyreactivity |
| QVQLVESGGGLVQAGGSLRLSCAASGGIFKYYAMGWYRLAPGKERELVAAITSGGNTNYADSVKGRFTISRDNAKNTVYLQMNSLKPEDTAVYYCAARSISRRTWQYNYWGQGTQVTVSS | high polyreactivity |
| QVQLVESGGGLVQAGGSLRLSCAASGITFSYYAMGWYRQAPGKERELVAAITGGSTYYADSVKGRFTISRDNAKNTVYLQMNSLKPEDTAVYYCNADSLFEYLDYDYWGQGTQVTVSS | low polyreactivity |
| QVQLVESGGGLVQAGGSLRLSCAASGLIFRTYTMGWYRQAPGKERELVAAISASGGRTYYADSVKGRFTISRDTAKNTVYLQMNRLKPEDTAVNYFNARVNYKGYDSWGQGTQVTVSS | high polyreactivity |
| QVQLVESGGGLVQAGGSLRLSCAASGSIFASYVMGWYRQAPGKERELVAAITSRGTSTYYADSVKGRFTISRDNAKNTVYLQMNSLKPEDTAVYYCAARLYGSAPQHEYWGQGTQVTVSS | low polyreactivity |
| QVQLVESGGGLVQAGGSLRLSCAASGRTFFTYAMGWYRQAPGKERELVAAITGSGGSTSYADSVKGRFTISRDNAKNTVYLQMNSLKPEDTAVYYCAADWQELEYDYWGQGTQVTVSS | low polyreactivity |
| QVQLVESGGGLVQAGGSLRLSCAASGRTFTYYAMGWYRQAPGKERELVAAITWSGGSTYYADSVKGRFTISRDNAKNTVYLQMNSLKPEDTAVYYCAAVDADYYYWGQGTQVTVSS | high polyreactivity |
| QVQLVESGGGLVQAGGSLRLSCAASGITFSYYAMGWYRQAPGKEMELVAAISGRDTRTYYADSVKGRFTISRDNAKNTVYLQMNSLKPEDTAVYYCNAVRKHLLKYDYWGQGTQVTVSS | high polyreactivity |
| QVQLVESGGGLVQAGGSLRLSCAASGSIFDLYAMGWYRQAPGKERELVAAISSGATTNYADSVKGRFTISRDNAKNTVYLQMNSLKPEDTAVYYCAKYYRISSLYVIVSAYVYWGQGTQVTVSS | low polyreactivity |
| QVQLVESGGGLVQAGGSLRLSCAASGFTFASYAMGWYRQAPGKERELVAAITRRGGSTNYADSVKGRFTISRDNAKNTVFLQMNSLKPEDTAVYYCNALHGVWYPAYDYWGQGTQVTVSS | low polyreactivity |
| QVQLVESGGGLVQAGGSLRLSCAASGSTFYWYAMGWYRPAPGKERELVAAISSGADTSYADSVKGRFTISRDNAKNTVYLQMNSLKPEDTAVYYCARRYRARGSMYYWGQGTKVTVSS | high polyreactivity |
| QVQLVESGGGLVQAGGSLRLSCAPSRSTLNYYAMGWYRQAPGKERELVAAITWSGGSTSYADSVKGRFTISRDNAKNTVYLQMNSLKPEDTAVYYCATDFPTVQLYDTDWLSSDMGYWGQGTQVTVSS | low polyreactivity |
| QVQLGESGGGLVQAGGSLRLSCAASGFTSVRYAKGWYRQAPGKERELVAAITWNGGSTYYADSVKGRFTISRDNAKKSVYLQMNSLKPEDTAVYYCAKDTPYRYSVAYDYWGQGTQVTVSS | high polyreactivity |
| QVQVVESGGGLVQAGGSLRLSCAASGSTFYRYAMGWYRQAPGKERELVAAITRGGGRTYYADSVKGRFTISRDHAKNTVYLQMNSLKPEDSAVYYCNAASPYYDSWGQGTQVTVSS | high polyreactivity |

| Sequence | polyreactivity (PSR sort gate) |
| --- | --- |
| QVQLVESGGGLVQAGGSLRLSCAASGFIFIRNAMGWYRQAPGKEWELVAAISSGGRTYYADSVKGRFTISRDNAKNTVYLQMNSLKPEDTAVYYCAARVITHYGRYYYWGQGTQVTVSS | high polyreactivity |
| QVQLVESGGGLVQAGGSLRLSCAASGFIFAVYGMGWYTQAPGKQRELVAAISTGDSTKYADSVKGRFTISRDNAKNTVYLQMNSLNPEDTAVYYCAADGPYEGYDYWGQGTQVTVSS | high polyreactivity |
| QVQLVESGGGLDQAGGSLRLSCAASGSTFKHNAMGWYRQAPAKERVLVAGISWGGSSTYYADSVKGRFTISRDNAKNTVYLQMNSLKPDDTAVYYCAKGGYRRYGYDYWGQGTQVTVSS | low polyreactivity |
| QVQLVESVGGLVQAGGSLRLSCAASGRIFHRYTMGWYRQAPGKEREFVAAITTRAGSTYYADSVKGRFTISRDNAKNTVYLQMNSLKPEDTAVYYCNIRRHSLYGGTTTRYDYWGQGTQVTVSS | high polyreactivity |
| QVQHVESGGGLVQAGGSLRLSCAASGSTFTAYAMGWYRQAPGKVSELVAVITSGGGTYYADSVKVRFTISRDNANNTDYLQMNSLKPEDTAVYYCHSARTYAGTYIYRYGYWGQGTQVTVSS | high polyreactivity |
| QVQLVESGGGLVQAGGSHSLSCAASGSTFKHYAMGWYRQAPGKERELVAAISWGGVNTDYADSVKGRFTISRDNAKNTVYLQMNSLNPEDTAVYYCAAGRWSVGTYDYWGQGTQVTVSS | low polyreactivity |
| QVQLVESGGGLVQAGGSLRLSCAASGIFLGYAMGWYRQAPGKERELVAAITSGDSTYYADSVKGRLTISRDNAKNTVYLQMNSLKPEDTAVYYCAKTRYSWPRVWYNYWGQGTQVTVSS | low polyreactivity |
| QVQLVESGGGLDQAGGSLRLSCAASGLIFRRYAMGWYRQAPGKERELVAAISRSGGSTYYADSVKGRFTISRDNAKNTVYLQMNSLKPEDTAVYYCAARTRSDNSYHGGEYWGQGTQVTVSS | high polyreactivity |
| QVQLVESGGGLVQAGGSLRLSCAASGITFANYAMGWYRQAPGKERELVAAISWSDTSTYADSVKGRFTISRDNAKNTVYLQMNSLKPEDTAVYYCAADYHTPSSFAPIELYDYWGQGTQVTVSS | low polyreactivity |
| QVQLVESGGGLVQAGGSLRLSCAASGSTFSRYAMGWYRPAPGKERELVAAISYSGDSTYYADSVKGRFTISRDNAKNTVYLQMNSLKPEDTAVYYCNVYSHYRGYYWGQGTQVTVSS | high polyreactivity |
| QVQLVESGGGLVQAGGSLRLSCAASGRTFEGNAMGWYRQAPGKERELVAAITSGGRTNYADSVKGRFTISRDNAKNTVYLQMNSLKPEDTAVYYCAAGQVSVGTIAKYDYWGQGTQVTVSS | low polyreactivity |
| QVQLVESGGGLVQAGGSLRLSCAASGNTIHWNFMGWYRQATGKERELVATITFSGSSTYYADSVKGRFTISRDNAKNTVYLQMNSLKPEDTAVYYCAKDFLGDGTSIEYGGSEYDYWGQGTQVTVSS | low polyreactivity |
| QVQLEESGGGLVQAGGSLRLSCAASGGTFDHYTMGWYRQAPGKERELVAAISRRSGRTYYADSVKGRFTISRDKAKNTVYLQMNSLKPEDTAVYYCNADGYTRAFDYWGQGTQVTVSS | high polyreactivity |
| QVQLVESGGGLVQAGGSLSLSCAASGRIFYRNAMGWYRQAPGKERELVAGITRGGSTNYADSVKGRFTISRDNAKNTVYLQMNSLKPEDTAVYYCAKAIPAKFYSEAGYDYWGQGTQVTVSS | low polyreactivity |
| QVQLVESGGGLVQAGGSLRLSCAASGRIFNLYAMGWYRQAPGKERDLVAAINWSGDRTYYADSVKGRFTISRDNAKNTVYLQMNSLKPDDTAVYYCNADGLEIERYAYWYVFLGYDYWGQGTQVTVSS | low polyreactivity |
| QVQLVESGGGLVQAGGSLRLSCAASASTFPVNAMGWYRQAPGKERELVAAIRSSTGRTYYADSVKGRFTISRDNAKNTVYLQMNSLKPEDTAVYYCAAYYLGQYEYDYWGQGTQVTVSS | low polyreactivity |

— the nanobody polyreactivity screen of Harvey et al. (2022)
